Results as given in patent US20170247465A1, “COMBINATION THERAPY FOR TREATMENT OF CANCER” (OncoMed Pharmaceuticals, Inc., priority 2014, published 2017).

Key:
[1] = system: cancer stem cells in OMP-LU77 lung tumors; test: Limiting dilution assay, cancer stem cell frequency in OMP-LU77 lung tumors (Example 7); assay type: in vivo, NOD/SCID mice; conditions: tumors from mice treated with vantictumab administered prior to paclitaxel; 50, 150, 500 cells implanted, 79 days; FIG. 5B
Excerpt: FIGS. 5A-5B. Cancer Stem Cell frequency. FIG. 5A. Tumor growth in mice following implantation of 50, 150, or 500 OMP-LU77 tumor cells obtained from mice that had been treated with either control antibody (Control mAb), paclitaxel (Pac), or the combination of OMP-18R5 and paclitaxel (Van+Pac). FIG. 5B. Cancer stem cell (CSC) frequency in OMP-LU77 lung tumors following treatment with control antibody (Control mAb), paclitaxel, or a combination of OMP-18R5 antibody and paclitaxel (Van+Pac) as determined by limiting dilution analysis.
Limiting dilution assays (LDAs) can be used to assess the effect of Wnt pathway inhibitors on solid tumor cancer stem cells and/or on the tumorigenicity of a tumor. The assays can be used to determine the frequency of cancer stem cells in tumors from animals treated with the Wnt pathway inhibitor and to compare that frequency to the frequency of cancer stem cells in tumors from control animals. […]
For the LDA, the tumor cells in the suspension were harvested, counted, and appropriate cell doses (50, 150, and 500 cells) were injected subcutaneously in NOD/SCID mice (10 mice per cell dose per treatment group). […] The percentage of mice with detectable tumors was determined in all treatment groups and compared to the percentage of mice with detectable tumors in the controls. […]

[2] = system: UM-PE13 breast tumor cells; test: UM-PE13 breast tumor xenograft, staggered dosing of OMP-18R5 and paclitaxel (Example 2); assay type: in vivo, NOD/SCID mice
Method: FIG. 2. Inhibition of breast tumor growth in vivo by a Wnt pathway inhibitor in combination with a taxane using a staggered dosing schedule. UM-PE13 breast tumor cells were injected subcutaneously into NOD/SCID mice. […] OMP-18R5 was administered at 25 mg/kg and paclitaxel at 20 mg/kg. Agents were administered every three weeks and administered intraperitoneally. Data is shown as tumor volume (mm^3) over days post treatment.
Single cell suspensions of xenograft UM-PE13 breast tumor cells (20,000 cells) were injected subcutaneously into 6-8 week old NOD/SCID mice. UM-PE13 is a triple negative breast cancer. Tumors were allowed to grow 34 days until they reached an average volume of 80 mm^3. The mice were randomized (n=8 per group) and treated with paclitaxel, a combination of OMP-18R5 and paclitaxel administered on the same day, a combination of OMP-18R5 and paclitaxel where the paclitaxel was administered 3 days prior to OMP-18R5, a combination of OMP-18R5 and paclitaxel where OMP-18R5 was administered 3 days prior to the paclitaxel, or a control antibody. Mice were treated once every three weeks with OMP-18R5 at a dose of 25 mg/kg and paclitaxel at a dose of 20 mg/kg. OMP-18R5 and paclitaxel were administered intraperitoneally. Tumor growth was monitored and tumor volumes were measured with electronic calipers at the indicated time points. Data are expressed as mean±S.E.M.

[3] = Phase 1b study of vantictumab in combination with docetaxel in NSCLC patients / Phase 1 program; assay type: in vivo; conditions: Cohorts 1 and 2: vantictumab 5 and 10 mg/kg Day 1 of 21-day cycle with docetaxel 75 mg/m^2
Excerpt: The study is an open-label Phase 1b dose-escalation study of vantictumab in combination with docetaxel in patients with previously treated recurrent or advanced non-small cell lung cancer (NSCLC). The primary objectives of the study are to determine the safety and the maximum tolerated dose of vantictumab in combination with docetaxel. To identify a recommended Phase 2 dose for vantictumab in combination with docetaxel. The secondary objectives are to characterize the pharmacokinetics (PK) of vantictumab when administered in combination with docetaxel, to characterize the immunogenicity of vantictumab, and to make preliminary assessment of vantictumab efficacy when administered in combination with docetaxel.
Vantictumab is administered on Day 1 of each 21-day cycle. The dose levels of vantictumab for Cohorts 1 and 2 were 5 mg/kg and 10 mg/kg, respectively. For Cohorts 1 and 2, docetaxel (75 mg/m^2) is administered IV on Day 1 of each cycle. […] Patients of Cohorts 3 and 4 will be administered vantictumab at 2 mg/kg and 4 mg/kg once every 3 weeks, respectively. No dose escalation of vantictumab will be allowed within a dose cohort. A staggered dosing regimen will be evaluated in Cohorts 3 and 4. Docetaxel (75 mg/m^2) will be administered IV on Day 3 of each cycle.

B1: OMP-18R5: anti-FZD antibody, IgG2, also known as vantictumab; heavy chain SEQ ID NO:3, light chain SEQ ID NO:4 (antibody)
heavy: EVQLVESGGGLVQPGGSLRLSCAASGFTFSHYTLSWVRQAPGKGLEWVSVISGDGSYTYYADSVKGRFTISSDNSKNTLYLQMNSLRAEDTAVYYCARNFIKYVFANWGQGTLVTVSSASTKGPSVFPLAPCSRSTSESTAALGCLVKDYFPEPVTVSWNSGALTSGVHTFPAVLQSSGLYSLSSVVTVPSSNFGTQTYTCNVDHKPSNTKVDKTVERKCCVECPPCPAPPVAGPSVFLFPPKPKDTLMISRTPEVTCVVVDVSHEDPEVQFNWYVDGVEVHNAKTKPREEQFNSTFRVVSVLTVVHQDWLNGKEYKCKVSNKGLPAPIEKTISKTKGQPREPQVYTLPPSREEMTKNQVSLTCLVKGFYPSDIAVEWESNGQPENNYKTTPPMLDSDGSFFLYSKLTVDKSRWQQGNVFSCSVMHEALHNHYTQKSLSLSPGK
light: DIELTQPPSVSVAPGQTARISCSGDNIGSFYVHWYQQKPGQAPVLVIYDKSNRPSGIPERFSGSNSGNTATLTISGTQAEDEADYYCQSYANTLSLVFGGGTKLTVLGQPKAAPSVTLFPPSSEELQANKATLVCLISDFYPGAVTVAWKADSSPVKAGVETTTPSKQSNNKYAASSYLSLTPEQWKSHRSYSCQVTHEGSTVEKTVAPTECS
cancer stem cell frequency (limiting dilution analysis, L-Calc) [1]: significantly decreased the cancer stem frequency
inhibition of tumor growth (tumor volume) ([2]; OMP-18R5 25 mg/kg administered 3 days prior to paclitaxel 20 mg/kg, every three weeks i.p., versus same day, paclitaxel first, paclitaxel alone, FIG. 2): significantly better at inhibiting tumor growth of the UM-PE13 breast tumor cells than any of the other dosing regimens
tumor regression in individual mice ([2]; Wnt pathway inhibitor (OMP-18R5) administered before the taxane (paclitaxel)): tumors in several of the individual mice regressed to undetectable levels
adverse events leading to discontinuation [3]: fragility fractures observed
